US20240425583A1, “METHODS AND COMPOSITIONS RELATED TO MCL-1 AND BIM HETERODIMER ANTIBODIES” (priority 2021, published 2024)

Tests used:
[1] = tested on: MCF-7 breast cancer cells; assay: IHC staining of FFPE MCF-7 cells, wild-type vs BIM siRNA; format: cell-based, human; conditions: BIM-siRNA transfected MCF-7 cells vs wild-type, FIG. 3
Description: (§1) The MCL-1/BIM heterodimer antibody (HSMCB) requires BIM to bind in situ. BIM siRNA was used on both MCF-7 and HCC70 cells (far left, and right middle columns, respectively), and the cells were then formalin-fixed and paraffin embedded into a tissue microarray (TMA) block, sectioned and added to glass slides, and stained with HSMCB. IHC images of the wild-type (WT) staining for both MCF-7 and HCC70 cells are shown in the middle-left, and far right columns, respectively. […] The images across the top panel in FIG. 3 are of an HSMCB antibody having CDRs selected from SEQ ID NO: 9, SEQ ID NO: 10, SEQ ID NO: 11, SEQ ID NO: 12, SEQ ID NO: 13, SEQ ID NO: 14, and having a variable heavy chain selected from SEQ ID NO: 15, and a variable light chain selected from SEQ ID NO: 16; and the images across the bottom panel in FIG. 3 are of an HSMCB antibody having CDRs selected from SEQ ID NO: 1, SEQ ID NO: 2, SEQ ID NO: 3, SEQ ID NO: 4, SEQ ID NO: 5, SEQ ID NO: 6, and having a variable heavy chain selected from SEQ ID NO: 7, and a variable light chain selected from SEQ ID NO: 8.
(§2) The experiments of this example show a set of IHC images relating to the application of the Mcl-1/Bim heterodimer antibody (HSMCB) to formalin-fixed paraffin-embedded (FFPE) specimens from MCF-7 breast cancer cells, and HCC70 triple negative breast cancer cells. […]

[2] = tested on: HCC70 triple negative breast cancer cells; assay: IHC staining of FFPE HCC70 cells, wild-type vs BIM siRNA; format: cell-based, human; conditions: for HSMCB IHC signal intensity: BIM-siRNA transfected HCC70 cells vs wild-type, FIG. 3
Description: as §1
In the far left panel. IHC images of the HSMCB antibody are shown for both WT HCC70 cells, and Bim-siRNA transfected HCC70 cells. In the middle panel. IHC images of the HSBXB antibody are shown for both WT HCC70 cells, and Bim-siRNA transfected HCC70 cells. In the far right panel. IHC images are shown of HCC70 cells without application of HSMCB or HSBXB. […] The images in the left column of FIG. 4 are of an HSMCB antibody having CDRs selected from SEQ ID NO: 9, SEQ ID NO: 10, SEQ ID NO: 11, SEQ ID NO: 12, SEQ ID NO: 13, SEQ ID NO: 14, and having a variable heavy chain selected from SEQ ID NO: 15, and a variable light chain selected from SEQ ID NO: 16.
as §2

[3] = biological target: T1, covalent Mcl-1-Bim complex (Homo sapiens, UniProt Q07820); assay: Flow cytometry detection of covalent Mcl-1-Bim complex immobilized on GSH beads; format: binding; conditions: directly labeled and secondary antibody detection, FIG. 12
T1 construct: mutated to delete their transmembrane domains; made in house; host or cells: E. coli BL21 (D3) for the Mcl-1 fusion; peptide UV-crosslinked to it
Description: In the experiments on the left side of the graph for HSMCB (i.e., the first two columns from the left on the graph), the HSMCB antibody is an antibody having CDRs selected from SEQ ID NO: 1, SEQ ID NO: 2, SEQ ID NO: 3, SEQ ID NO: 4, SEQ ID NO: 5, SEQ ID NO: 6, and having a variable heavy chain selected from SEQ ID NO: 7, and a variable light chain selected from SEQ ID NO: 8. In the next experiment near the middle of the graph for HSMCB (i.e., the second set of two columns in the middle on the graph), the antibody is an antibody having CDRs selected from SEQ ID NO: 9, SEQ ID NO: 10, SEQ ID NO: 11, SEQ ID NO: 12, SEQ ID NO: 13, SEQ ID NO: 14, and having a variable heavy chain selected from SEQ ID NO: 15, and a variable light chain selected from SEQ ID NO: 16. The antibody reactive with BcL-XL-Bim is used as a negative control, and Mcl1 (which recognizes both Mcl-1 monomer and Mcl-1-Bim complex) is used as a positive control. The signals using a directly labeled primary antibody (i.e., the first column in each set of two columns throughout the graph) and a secondary antibody detection system (i.e., the second column in each set of two columns throughout the graph) are shown.
AML patient samples were BH3 profiled in the experiments of this example. […] Patient samples were fixed, permeabilized, stained with HSMCB and anti-Mcl-1 antibody, and measured by flow cytometry. […]

T1 sequence (Q07820 1-327): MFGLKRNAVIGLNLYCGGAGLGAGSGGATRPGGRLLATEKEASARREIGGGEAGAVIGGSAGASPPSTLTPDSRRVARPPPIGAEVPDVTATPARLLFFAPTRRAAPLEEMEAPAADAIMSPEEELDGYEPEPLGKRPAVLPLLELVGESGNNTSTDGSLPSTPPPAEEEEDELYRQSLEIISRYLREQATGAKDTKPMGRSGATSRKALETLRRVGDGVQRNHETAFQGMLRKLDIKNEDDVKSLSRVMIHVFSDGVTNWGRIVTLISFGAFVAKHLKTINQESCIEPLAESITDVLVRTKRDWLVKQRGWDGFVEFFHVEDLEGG
T1 sequence (O43521 146-166 partner): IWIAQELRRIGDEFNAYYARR

B1: HSMCB (SEQ ID NO: 7, SEQ ID NO: 8): MCL-1/BIM heterodimer antibody, CDRs SEQ ID NO: 1-6, variable heavy chain SEQ ID NO: 7, variable light chain SEQ ID NO: 8 (antibody, V domains shown)
VH: MNFGLSLIFLVLVLKGVQCEVQLVESGGDLVKPGGSLKLSCAVSGFTFSSYAMSWVRQTPAKRLEWVATISSGGFATYYPDTVKGRFTISRDNAKNTLYLQMSSLRSEDTAMYYCARHGGGSYGWFAYWGQGTLVTVSE
VL: MLSLAPLLSLLLLCVSDSRAETTVTQSPASLSVATGEKVTIRCITSTDIDDDMNWYQQKPGEPPKLLISEGNTLRPGVPSRFSSSGYGTDFVFTIENTLSEDFADYYCLQSDNMPYTFGGGTKLEIK
HSMCB IHC signal intensity [1]: reduced HSMCB IHC signal intensity
HSMCB IHC signal intensity [2]: reduced HSMCB IHC signal intensity
Mcl-1-Bim bead detection [3]: demonstrated

B2: HSMCB (SEQ ID NO: 15, SEQ ID NO: 16): MCL-1/BIM heterodimer antibody, CDRs SEQ ID NO: 9-14, variable heavy chain SEQ ID NO: 15, variable light chain SEQ ID NO: 16 (antibody, V domains shown)
VH: MDWIWIMLHLLAAATGLQSQVHLQQSGSELRSPGSSVKLSCKDFDSEVFPIAYMSWVRQKPGHGFEWIGDILPSIGRTIYGEKFEDKATLDADTVSNTAYLELNSLTSEDSAIYYCARQDTYYAMDYWGQGTSVTVSS
VL: MHFQVQIFSFLLISASVIMSRGQIVLTQSPAIMSASPGEKVTITCSASSSVSYMHWVQQKPGTSPKLWIYSTSNLASGVPARFRGSGSGTSYSLTISRMEAEDAATYYCQQRSSYPYTFGGGTKLEIK
HSMCB IHC signal intensity [1]: reduced HSMCB IHC signal intensity
HSMCB IHC signal intensity [2]: reduced HSMCB IHC signal intensity
IHC activity ([2]; Bim-siRNA transfected HCC70 cells vs WT, FIG. 4): reduced activity
Mcl-1-Bim bead detection [3]: demonstrated
